Assay [1] has as its target T1, human EGF receptor (human, UniProt P00533). As to the kind of experiment: competition of 125I-EGF binding to NRHER5 membranes, 50% inhibition.
For assay [2], the target named is T1, human EGF receptor. As to the kind of experiment: competition of 125I-EGF binding to NRHER5 membranes.

Positions count from the first letter of the chain named.

What is called IC50 is the concentration at which inhibition is half-maximal. High values mean weaker potency in that assay, low ones greater potency in that assay.

In the case of “native amphiregulin (AR) purified from TPA-treated MCF-7 cells (ligand)”, the IC50 with human EGF receptor [1] was 100 nM. Further, the maximum competition with human EGF receptor [2] was found to be 85%.
“gp35, 35-40 kD soluble high molecular weight form of human AR (ligand)”: the IC50 in the assay with human EGF receptor [1] was more than 300 nM.

B1: bacterially produced AAAT (ligand)
chain: MVVKPPQNKTESENTSDKPKRKKKGGKNGKNRRNRKKKNPCNAEFQNFCIHGECKYIEHLEAVTCKCQQEYFGERCGEKDLLA
On to B1, for which the IC50 with human EGF receptor [1] is approximately 1.5 nM.

B2: bacterially produced AR-SMKT (ligand)
chain: B1 chain with D80S, L81M, L82K, A83T
Consider B2, for which the IC50 in the assay with human EGF receptor [1] was approximately 150 nM.

B3: recombinant human AR 18 kD purified from CHO/ARGE 2a cells (ligand)
chain: NKTESEKTSDKPKRKKKGGKNGKNRRNRKKKNLCDTEFQNFCIHGKCTFLEQLETVSCQCYPEYFGERCGEKSMKTQSMVD
modifications: N-linked glycosylation at Asn-113
B3 showed an IC50 with human EGF receptor [1] of approximately 100 nM.
